Experimental data: paper PMC9433323, “R-loop formation and conformational activation mechanisms of Cas9”

B1: 18-nt match checkpoint: λ1 sgRNA (3-stem loop) / TS / NTS (mixed)
RNA: GACGCAUAAAGAUGAGACGCGUUUUAGAGCUAGAAAUAGCAAGUUAAAAUAAGGCUAGUCCGUUAUCAACUUGAAAAAGUGGCACCGAGUCGGUGCUUUU
DNA 1: CGTGATTCCAGCGTCTCATCTTTATGCGAGTGTACTCG
DNA 2: CGAGTACACTATTGCGGGACGCTATTATTGGAATCACG
B2: 18-nt match catalytic: λ1 sgRNA (3-stem loop) / TS / NTS (mixed)
RNA: B1 RNA
DNA 1: CGTGATTCCAGCGTCTCATCTTTATGCGAGTGTACTCGTCTTGC
DNA 2: GCAAGACGAGTACACTCGCATAAAACGCTATTATTGGAATCACG

Key:
[1] = biological target: T1, SpCas9 wild type (Streptococcus pyogenes, UniProt Q99ZW2 1-1368); assay: cryo-EM; 1 mM Mg2+; checkpoint state; SEC binding: 20 mM HEPES-KOH pH 7.5, 200 mM KCl, 2 mM MgCl2, room temperature, 371 pmol dCas9, 400 pmol sgRNA, 250 pmol DNA; crystal complex: 20 mM HEPES-KOH pH 7.5, 250 mM KCl, 1 mM DTT, crystals at 20 C; conditions: protein: recombinant; tags: His6-MBP-TEV tag removed by TEV protease; sgRNA strand 1; TS/NTS duplex with internal mismatched region; 18 nt guide-TS complementarity
[2] = biological target: T1, SpCas9 wild type; assay: cryo-EM; 10 mM Mg2+; catalytically active state, TS and NTS cleaved; SEC binding: 20 mM HEPES-KOH pH 7.5, 200 mM KCl, 2 mM MgCl2, room temperature, 371 pmol dCas9, 400 pmol sgRNA, 250 pmol DNA; crystal complex: 20 mM HEPES-KOH pH 7.5, 250 mM KCl, 1 mM DTT, crystals at 20 C; conditions: protein: recombinant; tags: His6-MBP-TEV tag removed by TEV protease; sgRNA strand 1; TS/NTS duplex with internal mismatched region; 18 nt guide-TS complementarity; both DNA strands cleaved in structure

T1 sequence (Q99ZW2 whole entry): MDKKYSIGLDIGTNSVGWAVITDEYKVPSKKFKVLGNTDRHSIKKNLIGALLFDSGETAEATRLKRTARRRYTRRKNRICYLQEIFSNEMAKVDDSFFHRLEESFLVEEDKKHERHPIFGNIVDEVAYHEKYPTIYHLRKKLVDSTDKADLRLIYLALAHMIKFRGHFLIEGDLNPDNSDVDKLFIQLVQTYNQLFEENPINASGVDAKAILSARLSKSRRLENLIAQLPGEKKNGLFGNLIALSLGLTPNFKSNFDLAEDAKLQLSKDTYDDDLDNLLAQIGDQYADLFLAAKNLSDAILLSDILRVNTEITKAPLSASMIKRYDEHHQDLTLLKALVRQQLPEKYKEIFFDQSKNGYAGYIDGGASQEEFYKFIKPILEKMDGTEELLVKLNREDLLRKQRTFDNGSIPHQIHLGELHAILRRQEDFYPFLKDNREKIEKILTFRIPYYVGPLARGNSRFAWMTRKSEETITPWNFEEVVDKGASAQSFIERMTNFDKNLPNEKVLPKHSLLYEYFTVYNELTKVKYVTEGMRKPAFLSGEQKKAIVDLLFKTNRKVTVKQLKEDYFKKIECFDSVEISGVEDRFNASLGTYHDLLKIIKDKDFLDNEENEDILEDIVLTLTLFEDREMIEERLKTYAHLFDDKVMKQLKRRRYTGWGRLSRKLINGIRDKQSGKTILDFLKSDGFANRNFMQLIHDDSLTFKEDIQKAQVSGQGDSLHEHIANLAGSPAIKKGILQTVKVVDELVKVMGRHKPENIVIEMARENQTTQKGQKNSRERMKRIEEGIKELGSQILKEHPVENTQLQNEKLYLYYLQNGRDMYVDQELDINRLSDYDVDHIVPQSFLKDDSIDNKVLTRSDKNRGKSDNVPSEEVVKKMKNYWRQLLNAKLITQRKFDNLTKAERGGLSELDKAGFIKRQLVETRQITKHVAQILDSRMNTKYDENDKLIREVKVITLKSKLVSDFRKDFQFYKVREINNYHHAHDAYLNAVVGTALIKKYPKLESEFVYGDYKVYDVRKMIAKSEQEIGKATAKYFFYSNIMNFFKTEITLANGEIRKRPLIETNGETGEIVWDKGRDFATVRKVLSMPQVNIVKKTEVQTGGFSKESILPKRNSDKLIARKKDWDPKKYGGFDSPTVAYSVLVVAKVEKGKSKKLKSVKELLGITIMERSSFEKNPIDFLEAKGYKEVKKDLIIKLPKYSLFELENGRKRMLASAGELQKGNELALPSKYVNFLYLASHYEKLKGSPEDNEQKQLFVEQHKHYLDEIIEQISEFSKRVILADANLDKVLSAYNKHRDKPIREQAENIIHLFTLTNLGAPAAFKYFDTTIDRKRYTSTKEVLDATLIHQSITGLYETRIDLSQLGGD

| Binder | binding result [1] | binding result [2] |
| --- | --- | --- |
| B1 | binds | – |
| B2 | – | binds |
